Test results taken from US20140212440A1.
Read-outs that look alike come from different tables or passages of the source. Where no end group is shown, it is not given here. [ ]: non-standard residue; d: D form. The star is where a group is joined. Acetyl(2-(4-imidazolyl)) = O=C(Cc1c[nH]cn1)*

Experiments:
Assay in all cases: cell-based or functional assay
[1] = biological target: human glucagon receptor (human) (UniProt P47871)
[2] = biological target: human GLP-1 receptor (human) (UniProt P43220)
Chain of human GLP-1 receptor (human) (P43220 24-463): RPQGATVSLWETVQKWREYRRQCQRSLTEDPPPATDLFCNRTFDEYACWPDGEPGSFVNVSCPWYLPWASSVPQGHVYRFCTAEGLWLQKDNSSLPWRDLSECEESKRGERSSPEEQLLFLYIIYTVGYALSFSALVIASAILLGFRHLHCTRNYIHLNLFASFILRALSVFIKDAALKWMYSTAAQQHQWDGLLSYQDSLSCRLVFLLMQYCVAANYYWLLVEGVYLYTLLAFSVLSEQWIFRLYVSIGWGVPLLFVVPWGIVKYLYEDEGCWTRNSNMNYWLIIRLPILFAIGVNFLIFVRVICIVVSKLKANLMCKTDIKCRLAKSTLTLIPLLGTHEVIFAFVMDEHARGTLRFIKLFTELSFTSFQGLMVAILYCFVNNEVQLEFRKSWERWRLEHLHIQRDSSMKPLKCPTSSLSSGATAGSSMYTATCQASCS

[3] = biological target: human glucagon receptor (human) (UniProt P47871); remark: listed apart in the source

Chain of human glucagon receptor (human) (P47871 26-477): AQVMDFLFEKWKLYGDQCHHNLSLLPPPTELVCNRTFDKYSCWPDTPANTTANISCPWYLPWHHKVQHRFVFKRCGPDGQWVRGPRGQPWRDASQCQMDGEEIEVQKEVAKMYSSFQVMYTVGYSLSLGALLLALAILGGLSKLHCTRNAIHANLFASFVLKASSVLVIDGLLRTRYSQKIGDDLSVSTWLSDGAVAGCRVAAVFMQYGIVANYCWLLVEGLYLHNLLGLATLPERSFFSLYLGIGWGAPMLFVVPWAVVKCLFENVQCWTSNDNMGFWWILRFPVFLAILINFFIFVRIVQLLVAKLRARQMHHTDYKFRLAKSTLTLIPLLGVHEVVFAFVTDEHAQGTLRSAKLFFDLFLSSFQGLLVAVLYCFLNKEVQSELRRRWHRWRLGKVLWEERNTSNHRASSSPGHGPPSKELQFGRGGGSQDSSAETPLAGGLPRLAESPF

| Molecule | EC50 (nM), cAMP in CHO/GCGR [1] | EC50 (nM), cAMP in CHO/GLP-1R [2] | EC50 (nM), cAMP in CHO/GCGR [3] |
| --- | --- | --- | --- |
| GLP-1 (from UniProt P01275 92-128) (ligand) | > 1000 nM |  |  |
| [Acetyl(2-(4-imidazolyl))]SQGTFTSDLSRQLEEEAVRLFIEWLMNK [oxyntomodulin derivative (SEQ ID NO. 8)] |  | 420 nM | > 1000 nM |
| [Acetyl(2-(4-imidazolyl))]SQGTFTSDYSRYLDEEAVRLFIEWIRNGGPSSGAPPPSK [oxyntomodulin derivative (SEQ ID NO. 18)] |  | 96.3 nM | > 1000 nM |
| [Acetyl(2-(4-imidazolyl))]SQGTFTSDYSKYLDERRAQDFVAWLKNTGPSSGAPPPS [oxyntomodulin derivative (SEQ ID NO. 3)] |  | > 1000 nM | 638 nM |
